Measured values reported in US20230322953A1 (HARBOUR BIOMED SHANGHAI, published 2023).

T1: human BCMA on NCI-H929 cells (ATCC, CRL-9068) (human, UniProt Q02223 1-184)
T1 sequence (looked up): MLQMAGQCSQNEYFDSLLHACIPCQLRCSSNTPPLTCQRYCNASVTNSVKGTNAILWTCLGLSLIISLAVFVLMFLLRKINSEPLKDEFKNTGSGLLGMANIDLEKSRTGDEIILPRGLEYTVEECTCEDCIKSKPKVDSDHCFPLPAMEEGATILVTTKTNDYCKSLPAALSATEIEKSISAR

T2: biotinylated human BCMA-Fc, Avitag recombinant protein (ACRO Biosystems, #BC7-H82F0) (human, UniProt Q02223 1-54, biotinylated (Avitag))
T2 construct: extracellular domain; Bought protein; also called huBCMA.Fc; recombinant human BCMA-ECD-Fc
T2 sequence (looked up): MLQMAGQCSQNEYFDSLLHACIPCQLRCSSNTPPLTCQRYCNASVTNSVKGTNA


How the values were obtained:
[1] = molecular target: T3, human CD3 (TCR/CD3 complex) on human T cells (human, UniProt P07766 23-207); experiment: flow cytometry (FACS) on human T cells, Experiment 3
T3 construct: whole, on cells
T3 sequence (P07766 23-207, one chain of several): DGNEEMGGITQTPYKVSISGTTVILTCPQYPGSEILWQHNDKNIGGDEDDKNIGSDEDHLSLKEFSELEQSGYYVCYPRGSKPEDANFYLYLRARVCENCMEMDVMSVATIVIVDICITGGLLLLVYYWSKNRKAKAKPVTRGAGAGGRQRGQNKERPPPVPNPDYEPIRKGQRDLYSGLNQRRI

[2] = molecular target: T1, human BCMA on NCI-H929 cells (ATCC, …); experiment: cell-based or functional assay
[3] = molecular target: T4, cynomolgus monkey BCMA (ACRO Biosystems, #BCA-C82F4) (cynomolgus monkey, UniProt A0A2K5UD97 1-53); experiment: BLI; KD for cynomolgus monkey BCMA divided by KD for human BCMA
T4 construct: Bought protein; also called cyBCMA.Fc
T4 sequence (A0A2K5UD97 entry or part of it): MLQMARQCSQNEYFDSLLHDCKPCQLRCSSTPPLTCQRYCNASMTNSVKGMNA

[4] = molecular target: T4, cynomolgus monkey BCMA (ACRO …); experiment: BLI (Octet Red96e), cyBCMA.Fc on SA sensor, 1:1 global fitting
[5] = molecular target: T5, cynomolgus monkey CD3 (TCR/CD3 complex) on cynomolgus monkey T cells (cynomolgus monkey); experiment: flow cytometry (FACS) on cynomolgus monkey T cells
T5 construct: whole, on cells
T5 sequence (Q95LI5 22-198, one chain of several): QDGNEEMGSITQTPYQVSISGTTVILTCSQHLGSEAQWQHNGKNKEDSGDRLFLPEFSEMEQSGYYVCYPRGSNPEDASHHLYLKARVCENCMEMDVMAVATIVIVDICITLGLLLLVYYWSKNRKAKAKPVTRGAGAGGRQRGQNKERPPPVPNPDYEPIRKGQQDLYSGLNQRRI

[6] = molecular target: T2, biotinylated human BCMA-Fc, Avitag …; experiment: BLI (Octet Red96e), biotinylated BCMA-Fc on SA sensor, 1:1 global fitting;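 note: Anti-BCMA antibodies analysed as binding partners of the captured BCMA antigen, with reference signals removed by double referencing before kinetic fitting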
[7] = molecular target: T1, human BCMA on NCI-H929 cells (ATCC, …); experiment: cell-based or functional assay; remark: listed apart in the source
[8] = molecular target: T1, human BCMA on NCI-H929 cells (ATCC, …); experiment: cell-based or functional assay; remark: listed apart in the source

Binder	Maximum MFI [1] [MFI]	IFN-γ release, EC50 [2] [nM]	IFN-γ release, Maximum [2] [pg/mL]	IL-2 release, EC50 [2] [nM]	IL-2 release, Maximum [2] [pg/mL]	IL-6 release, EC50 [2] [nM]	IL-6 release, Maximum [2] [pg/mL]	IL-10 release, EC50 [2] [nM]	IL-10 release, Maximum [2] [pg/mL]	NCI-H929 killing, EC50 [2] [nM]	NCI-H929 killing, Maximum killing rate % [2] [%]	TNF-α release, EC50 [2] [nM]	TNF-α release, Maximum [2] [pg/mL]	KD ratio (cy BCMA/hu BCMA) [3]	Kd [4] [nM]	koff [4] [s⁻¹]	kon [4] [M⁻¹ s⁻¹]	Maximum MFI [5] [MFI]	Kd [6] [nM]	koff [6] [s⁻¹]	other results
PR002895 (bispecific antibody, human IgG1, lambda, L234A L235A) light: QAVVTQEPSLTVSPGGTVTLTCRSSTGAVTTSNYANWVQQKPGQAPRGLIGGTNKRAPWTPARFSGSLLGDKAALTLLGAQPEDEAEYFCALWYSNLWVFGGGTKLTVLGQPKAAPSVTLFPPSSEELQANKATLVCLISDFYPGAVTVAWKADSSPVKAGVETTTPSKQSNNKYAASSYLSLTPEQWKSHRSYSCQVTHEGSTVEKTVAPTECS heavy: not shown EVQLVETGGGLIQPGGSLRLSCAASGFTVSDNYMTWVRQAPGKGLEWVSVIFSGGNTYYADSVKGRFTISRDNAKNTLYLQMNSLRAEDTALYYCARRNYDDTRGTDVFDIWGQGTMVTVSSGGGGSGGGGSGGGGSEVQLVETGGGLIQPGGSLRLSCAASGFTVSDNYMTWVRQAPGKGLEWVSVIFSGGNTYYADSVKGRFTISRDNAKNTLYLQMNSLRAEDTALYYCARRNYDDTRGTDVFDIWGQGTMVTVSSASEPKSSDKTHTCPPCPAPEAAGGPSVFLFPPKPKDTLMISRTPEVTCVVVDVSHEDPEVKFNWYVDGVEVHNAKTKPREEQYNSTYRVVSVLTVLHQDWLNGKEYKCKVSNKALPAPIEKTISKAKGQPREPQVCTLPPSREEMTKNQVSLSCAVKGFYPSDIAVEWESNGQPENNYKTTPPVLDSDGSFFLVSKLTVDKSRWQQGNVFSCSVMHEALHNHYTQKSLSLSPGK	322000	0.0223	1440	0.0211	100	0.00839	118	0.0134	240	0.00293	57.9	0.00818	1280	1.38	0.272	0.000242	890000	18600	0.197	8.11e-05	kon [6]: 412000 M⁻¹ s⁻¹
PR003178 (bispecific antibody, human IgG1, lambda, L234A L235A) light: QAVVTQEPSLTVSPGGTVTLTCRSSTGAVTTSNYANWVQQKPGQAPRGLIGGTNKRAPWTPARFSGSLLGDKAALTLLGAQPEDEAEYFCALWYSNLWVFGGGTKLTVLGQPKAAPSVTLFPPSSEELQANKATLVCLISDFYPGAVTVAWKADSSPVKAGVETTTPSKQSNNKYAASSYLSLTPEQWKSHRSYSCQVTHEGSTVEKTVAPTECS heavy: not shown EVQLVETGGGLIQPGGSLRLSCAASGFTVSDNYMTWVRQAPGKGLEWVSVIFSGGNTYYADSVKGRFTISRDNAKNTLYLQMNSLRAEDTALYYCARRNYDDTRGTDVFDIWGQGTMVTVSSGGGGSGGGGSGGGGSEVQLVETGGGLIQPGGSLRLSCAASGFTVSDNYMTWVRQAPGKGLEWVSVIFSGGNTYYADSVKGRFTISRDNAKNTLYLQMNSLRAEDTALYYCARRNYDDTRGTDVFDIWGQGTMVTVSSASEPKSSDKTHTCPPCPAPEAAGGPSVFLFPPKPKDTLMISRTPEVTCVVVDVSHEDPEVKFNWYVDGVEVHNAKTKPREEQYNSTYRVVSVLTVLHQDWLNGKEYKCKVSNKALPAPIEKTISKAKGQPREPQVCTLPPSREEMTKNQVSLSCAVKGFYPSDIAVEWESNGQPENNYKTTPPVLDSDGSFFLVSKLTVDKSRWQQGNVFSCSVMHEALHNHYTQKSLSLSPGK	23900	0.0595	1210	0.175	101	0.0448	89.7	0.104	322	0.0102	56.8	0.0281	1330	1.35	0.319	0.000262	822000	10700	0.236	0.000117	Killing EC50 (nM), PBMC + NCI-H929, + 62.5 ng/ml sBCMA [7]: 0.009 nM; Killing EC50 (nM), PBMC + NCI-H929, + 125 ng/mL sBCMA [7]: 0.014 nM; Killing EC50 (nM), PBMC + NCI-H929, + 250 ng/ml sBCMA [7]: 0.065 nM; Killing EC50 (nM), PBMC + NCI-H929, + 500 ng/ml sBCMA [7]: 0.12 nM; Killing EC50 (nM), PBMC + NCI-H929, no sBCMA [7]: 0.005 nM; Killing EC50 (nM), PBMC + NCI-H929, + 10 ng/mL sBAFF [8]: 0.005 nM; Killing EC50 (nM), PBMC + NCI-H929, + 10 ng/ml sAPRIL [8]: 0.009 nM; Killing EC50 (nM), PBMC + NCI-H929, + 100 ng/mL sAPRIL [8]: 0.011 nM; Killing EC50 (nM), PBMC + NCI-H929, + 100 ng/mL sBAFF [8]: 0.008 nM; Killing EC50 (nM), PBMC + NCI-H929, no soluble ligand [8]: 0.007 nM; kon [6]: 494000 M⁻¹ s⁻¹
PR002953 (bispecific antibody, human IgG1, lambda, L234A L235A) light: QAVVTQEPSLTVSPGGTVTLTCRSSTGAVTTSNYANWVQQKPGQAPRGLIGGTNKRAPWTPARFSGSLLGDKAALTLLGAQPEDEAEYFCALWYSNLWVFGGGTKLTVLGQPKAAPSVTLFPPSSEELQANKATLVCLISDFYPGAVTVAWKADSSPVKAGVETTTPSKQSNNKYAASSYLSLTPEQWKSHRSYSCQVTHEGSTVEKTVAPTECS heavy: not shown EVQLVETGGGLIQPGGSLRLSCAASGFTVSDNYMTWVRQAPGKGLEWVSVIFSGGNTYYADSVKGRFTISRDNAKNTLYLQMNSLRAEDTALYYCARRNYDDTRGTDVFDIWGQGTMVTVSSGGGGSGGGGSGGGGSEVQLVETGGGLIQPGGSLRLSCAASGFTVSDNYMTWVRQAPGKGLEWVSVIFSGGNTYYADSVKGRFTISRDNAKNTLYLQMNSLRAEDTALYYCARRNYDDTRGTDVFDIWGQGTMVTVSSASEPKSSDKTHTCPPCPAPEAAGGPSVFLFPPKPKDTLMISRTPEVTCVVVDVSHEDPEVKFNWYVDGVEVHNAKTKPREEQYNSTYRVVSVLTVLHQDWLNGKEYKCKVSNKALPAPIEKTISKAKGQPREPQVCTLPPSREEMTKNQVSLSCAVKGFYPSDIAVEWESNGQPENNYKTTPPVLDSDGSFFLVSKLTVDKSRWQQGNVFSCSVMHEALHNHYTQKSLSLSPGK	17000	0.212	640	0.795	23.6	0.128	68.5	0.208	129	0.047	57.5	0.197	894	0.87	0.195	7.12e-05	365000	9710	0.225	0.000107	kon [6]: 474000 M⁻¹ s⁻¹
